Test results taken from patent US8598081B2, “Specific delivery of agrochemicals” (priority 2010, dated 2013).

B1: VHH 3E6: VHH binding gum arabic, potato lectin and leaf surface; SEQ ID NO:7 by order of the list (protein, listed as Lama glama)
VHH: QVQLQESGGGLVQPGGTLSLSCAASGFNVRWYGMGWFRQAPGKEREGVACISALQETTAYADSVKGRFTLSRDNPKNTLSLQMNNLQPEDTGVYYCATTDCDDSSRMTYTSYLGQGTQVTVSS
modifications: 3E6
B2: Microcapsules containing uvitex OB VHH 3E6: polyurea microcapsules containing the fluorescent tracer Uvitex OB, coupled with (monovalent) VHH 3E6 (conjugate)
VHH: B1 VHH
modifications: left off: small tags and cut ends
notes: polyurea microcapsules containing the fluorescent tracer Uvitex OB, coupled with (monovalent) VHH 3E6

Columns and labels:
[1] = tested on: gum arabic or potato lectin; test: Lambda cyhalothrin amount in wells with bound microcapsules, GC/MS-MS; format: binding; details: VHH coupled to lambda cyhalothrin microcapsules
Description: An ELISA-like assay setup was used to evaluate the interaction of VHH-coupled microcapsules to antigen-containing surfaces. ELISA plates (Maxisorp (Thermo Scientific Nunc) or high bind half area microplates (Greiner Bio-One)) were coated with gum arabic or potato lectin. Coatings were performed overnight with 100 μg/ml gum arabic or potato lectin in PBS. Control wells included blank wells or wells coated with unrelated antigens. Plates were washed three times with PBS with 0.05%-TWEEN®-20 and blocked with 5% skimmed milk in PBS for 1 to 2 hours. VHH-coupled lambda cyhalothrin-containing or Uvitex-containing microcapsules were diluted to appropriate densities in 1% skimmed milk in PBS with 0.05%-TWEEN®-20. Microcapsules were added to the antigen-coated or control wells and allowed to bind for 1 hour. Unbound microcapsules were removed by washing five times with PBS with 0.05%-TWEEN®-20. The bottoms of ELISA plate wells were analyzed for bound microcapsules on a macrozoom microscope system (Nikon). Microcapsules were counted using Volocity image analysis software (Perkin Elmer). A DAPI filter was used to visualize Uvitex microcapsules. […]
In another experiment, lambda cyhalothrin amounts were also determined analytically. […] The amount of lambda cyhalothrin was determined by GC/MS-MS analysis in comparison with calibration solutions. […]

[2] = ELISA-like assay of VHH-coupled microcapsules, unrelated antigen-coated wells; format: binding; details: uvitex OB microcapsules
Description: Polyurea microcapsules were produced by interfacial polymerization. With the objective to generate functionalized polyurea microcapsules, VHH were coupled to microcapsules containing either the insecticide lambda cyhalothrin or the fluorescent tracer molecule Uvitex OB and a shell with incorporated lysine to surface-expose carboxylic acid residues. Lambda cyhalothrin was dissolved in benzyl benzoate in concentrations between 30% and 66% before encapsulation. Alternatively, a core of 1.5% Uvitex in benzyl benzoate was used for easy fluorescent visualization of microcapsules. Toluene diisocyanate (TDI) and polymethylenepolyphenylene isocyanate (PMPPI) were dissolved in the oil phase in different ratios and concentrations in the oil phase to produce desired shell characteristics. Stirring speed for the emulsion was varied to control droplet size and consequently microcapsule diameter. Microcapsules with approximate diameters of 5 μm, 10 μm, or 50 μm were successfully produced. Bifunctional lysine and trifunctional diethylene triamine (DETA) were used in different ratios and/or added sequentially during encapsulation to on the one hand maximize amounts of carboxylic acids on the microcapsules' surface and on the other hand obtain sufficient strength of capsule shells. Microcapsules were washed with water after production and stored as microcapsule suspensions in water. The microcapsules were washed with 100 mM MES, 500 mM NaCl, pH 6.0 immediately before coupling of VHH using a vacuum-tight filter flask and P 1.6 filter funnel (Duran). Alternatively, glass filter holders with 0.45 μm disposable membrane filters (Millipore) or 0.45 μm 96-well deep-well filtration plates (Millipore) were used. Couplings of VHH to microcapsules were performed using carbodiimide-mediated couplings using a one-step procedure, a two-step procedure without N-hydroxysuccinimide (NHS), or a two-step procedure with NHS. The major difference between one-step coupling and two-step coupling procedures is the occurrence of cross-linking of VHH in one-step coupling procedures. The protocols for the three procedures are largely similar and differ as follows. For one-step couplings VHH were added to washed microcapsules and 1-Ethyl-3-[3-dimethylaminopropyl]carbodiimide Hydrochloride (EDC) (Pierce) was added and coupling reaction was allowed for 2 hours at room temperature. For two-step couplings washed microcapsules were first activated with EDC in the presence or absence of NHS. Excess unreacted EDC (and NHS) were removed by quick sequential washes with ice-cold buffers and VHH were added and allowed to react with activated carboxylic acids on microcapsule shells. For ø 10 μm microcapsules 2-20 μg VHH were coupled per mg microcapsules. […]

Molecule	increase of amounts of lambda cyhalothrin in wells coated with antigen compared to blank microcapsules [1] [fold]	increase of amounts of lambda cyhalothrin over blank wells not coated with antigen [1] [fold]	Area of bound microcapsules ([2]; no coating (second series, with unrelated antigen rows), surface coverage 100%)	Area of bound microcapsules ([2]; unrelated antigen, surface coverage 4%)	Area of bound microcapsules ([2]; unrelated antigen, surface coverage 20%)	Area of bound microcapsules ([2]; unrelated antigen, surface coverage 100%)
B1	23	27				
B2			68.181	23.525	47.906	84.508
